In patent publication US20110082285A1 (STAIDSON BEIJING PHARMACEUTICAL, published 2011):

Molecular target: T1, P75 (UniProt P08138 29-427)
T1 construct: whole, on cells
T1 sequence (looked up): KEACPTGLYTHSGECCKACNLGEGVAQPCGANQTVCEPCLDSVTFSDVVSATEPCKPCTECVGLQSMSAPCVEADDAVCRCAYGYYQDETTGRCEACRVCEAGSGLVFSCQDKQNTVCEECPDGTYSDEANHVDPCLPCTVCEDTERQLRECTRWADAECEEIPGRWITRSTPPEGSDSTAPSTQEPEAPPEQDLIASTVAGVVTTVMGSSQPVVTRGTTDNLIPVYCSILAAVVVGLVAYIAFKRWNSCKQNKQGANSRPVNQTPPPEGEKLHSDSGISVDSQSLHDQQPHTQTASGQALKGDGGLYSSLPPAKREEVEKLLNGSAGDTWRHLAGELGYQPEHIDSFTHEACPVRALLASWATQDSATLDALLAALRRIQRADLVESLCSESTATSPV
Assay: I^125-labeled ligand crosslinked to A875 tumor cells expressing P75, immunoprecipitation, SDS-PAGE, autoradiography
Method: The WT mouse NGF and mutant NGF was labeled with I¹²⁵, then added to both the cells expressing TrkA and the A875 tumor cells expressing P75. The ligand and receptor were crosslinked by N-hydroxysuccinimidyl-4-azidobenzoate, the cells were lysed, and the cross-linked complex was immunoprecipitated overnight at 4° C.

B1: mutant NGF (mouse NGF-β mature peptide with Lys32, Lys34 and Glu35 changed to Ala) (ligand)
chain: SSTHPVFHMGEFSVCDSVSVWVGDKTTATDIAGAAVTVLAEVNINNSVFRQYFFETKCRASNPVESGCRGIDSKHWNSYCTTTHTFVKALTTDEKQAAWRFIRIDTACVCVLSRKATRRG
modifications: Labelled with I^125 (labelled residues not stated). Disulfide-bonded monomer; NGF-β acts as a non-covalent homodimer, one chain given.
notes: also called mutant NGF-β; NGF mutant
- binding result: no binding
